The chains are these.
T1: IFN-αF (human, UniProt P01568 24-189)
T1 construct: also called IFN-α21; alpha F
T1 chain: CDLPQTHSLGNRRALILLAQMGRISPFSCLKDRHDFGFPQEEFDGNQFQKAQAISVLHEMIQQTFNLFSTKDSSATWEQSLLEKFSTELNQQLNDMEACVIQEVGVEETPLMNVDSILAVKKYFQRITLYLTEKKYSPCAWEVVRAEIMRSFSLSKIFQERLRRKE

B1: IFWM3357 (antibody, V domains shown)
VH: EVQLVQSGAEVKKPGESLKISCKGSGYSFTSYWIGWVRQMPGKGLEWMGIIDPSDSDTAYSPSFQGQVTISADKSISTAYLQWSSLKASDTAMYYCARHPGLNWAPDFDYWGQGTLVTVSS
VL: DIQMTQSPSSLSASVGDRVTITCRASQSISEYLNWYQQKPGKAPKLLIYFASSLQSGVPSRFSGSGSGTDFTLTISSLQPEDFATYYCQQSHSLPITFGQGTKVEIK
notes: VH IFWH624, VL IFWL1038; converted mAb; also called IFWB3092
B2: IFWM3329 (antibody, V domains shown)
VH: B1 VH with A59R
VL: DIQMTQSPSSLSASVGDRVTITCRASQSIRNNNLNWYQQKPGKAPKLLIHWASSLQSGVPSRFSGSGSGTDFTLTISSLQPEDFATYYCQQGYDTPFTFGQGTKVEIK
notes: VH IFWH591, VL IFWL1067; converted mAb; also called IFWB3064
B3: IFWM3328 (antibody, V domains shown)
VH: B1 VH with A59R
VL: DIQMTQSPSSLSASVGDRVTITCRASQSINNLNWYQQKPGKAPKLLIYWASSLQSGVPSRFSGSGSGTDFTLTISSLQPEDFATYYCQQGYDTPFTFGQGTKVEIK
notes: VH IFWH591, VL IFWL1064; converted mAb; also called IFWB3063
B4: IFWM3332 (antibody, V domains shown)
VH: B1 VH with A59R
VL: B2 VL with R30A, N32T, G92W, T95N, F97L
notes: VH IFWH591, VL IFWL1074; converted mAb; also called IFWB3067
B5: IFWM3364 (antibody, V domains shown)
VH: B1 VH
VL: B1 VL with S30R, E31N, Y32S, Y49K, F50W, S91L, H92Y, S93D, L94W, I96L
notes: VH IFWH624, VL IFWL1060; converted mAb; also called IFWB3099
B6: IFWM3359 (antibody, V domains shown)
VH: B1 VH
VL: B1 VL with S30N, E31G, Y32V, S93D, L94F, I96L
notes: VH IFWH624, VL IFWL1047; converted mAb; also called IFWB3094
B7: IFWM3337 (antibody, V domains shown)
VH: B1 VH with A59R
VL: B2 VL with R30S, N32S, G92W, T95H, F97L
notes: VH IFWH591, VL IFWL1087; converted mAb; also called IFWB3072
B8: IFWM3333 (antibody, V domains shown)
VH: B1 VH with A59R
VL: B2 VL with R30D, H50Y, W51A, T95W, F97L
notes: VH IFWH591, VL IFWL1076; converted mAb; also called IFWB3068
B9: IFWM3360 (antibody, V domains shown)
VH: B1 VH
VL: B1 VL with S30D, E31G, Y32A, S91A, H92Y, S93D, L94F, I96L
notes: VH IFWH624, VL IFWL1048; converted mAb; also called IFWB3095
B10: IFWM3338 (antibody, V domains shown)
VH: B1 VH with A59R
VL: B2 VL with N32T
notes: VH IFWH591, VL IFWL1091; converted mAb; also called IFWB3073
B11: IFWM3361 (antibody, V domains shown)
VH: B1 VH
VL: B1 VL with S30A, E31D, Y32F, L94F, I96L
notes: VH IFWH624, VL IFWL1051; converted mAb; also called IFWB3096
B12: IFWM3334 (antibody, V domains shown)
VH: B1 VH with A59R
VL: B2 VL with N33S, H50Y, W51A, G92D, D94N, T95W, F97L
notes: VH IFWH591, VL IFWL1082; converted mAb; also called IFWB3069
B13: IFWM3336 (antibody, V domains shown)
VH: B1 VH with A59R
VL: B2 VL with N33Y, H50Y, W51A, F97L
notes: VH IFWH591, VL IFWL1085; converted mAb; also called IFWB3071
B14: IFWM3358 (antibody, V domains shown)
VH: B1 VH
VL: B1 VL with S30T, E31G, Y32F, F50A, S93D, L94F, I96L
notes: VH IFWH624, VL IFWL1041; converted mAb; also called IFWB3093
B15: IFWM3327 (antibody, V domains shown)
VH: B1 VH with A59R
VL: B2 VL with R30A
notes: VH IFWH591, VL IFWL1063; converted mAb; also called IFWB3062
B16: IFWM3339 (antibody, V domains shown)
VH: B1 VH with A59R
VL: B2 VL with R30A, N33D, G92D, T95W, F97L
notes: VH IFWH591, VL IFWL1093; converted mAb; also called IFWB3074
B17: IFWM3331 (antibody, V domains shown)
VH: B1 VH with A59R
VL: B2 VL with R30D, N32S, N33Y, H50Y, W51G, Y93W, T95W, F97L
notes: VH IFWH591, VL IFWL1073; converted mAb; also called IFWB3066
B18: IFWM3335 (antibody, V domains shown)
VH: B1 VH with A59R
VL: B3 VL with N31Y, W49G, G90S, Y91H, T93W, F95I
notes: VH IFWH591, VL IFWL1084; converted mAb; also called IFWB3070

Substitutions are numbered along the chain they refer to.

The source of these data is patent publication US20150368338A1 (Janssen / Centocor, published 2015).

The first test has as its target T2, IFN-αWA (human, UniProt P05015 24-189).
T2 construct: also called IFN-α16; alpha WA
Put plainly: ProteOn, one antigen concentration.
Description: (§1) To increase the assay throughput, only one concentration of the individual antigen was used.
On to B1, for which the dissociation constant Kd (commonly the constant that tells how readily two partners part at equilibrium) amounted to 37 pM. That is a picomolar value.
The same measure, in the same setting: as for B2, the figure is 173 pM; as for B3, 207 pM.
Same read-out and setting: as for B4, the figure is 76 pM.
Consider B5, for which the Kd worked out at 118 pM.
The molecule B6 yielded a dissociation constant Kd of 51 pM.
On the same count and under the same terms, as for B7, the figure is 37 pM; as for B8, 258 pM.
Same read-out and setting: the same measure for B9: 61 pM.
The same measure, in the same setting: as for B10, the figure is 200 pM; as for B11, 98 pM.
B12 gave a dissociation constant Kd of 517 pM.
Same read-out and setting: the same measure for B13: 105 pM.
B14 showed a dissociation constant Kd of 123 pM.
On the same count and under the same terms, as for B15, the figure is 106 pM; as for B16, 141 pM.
The same measure, in the same setting: as for B17, the figure is 26 pM; as for B18, 137 pM.

A further test has as its target T1, IFN-αF. Description: ProteOn, one antigen concentration.
Description: as §1
The molecule B1 showed a Kd of 39 pM. This lies in the picomolar range.
On the same count and under the same terms, as for B2, the figure is 51 pM; as for B3, 91 pM.
Consider B4, for which the Kd was found to be 54 pM.
Consider B5, for which the Kd was 109 pM.
Still for that read-out and setting: as for B6, the figure is 53 pM; as for B7, 16 pM.
The same measure, in the same setting: as for B8, the figure is 89 pM; as for B9, 49 pM.
Take B10: the Kd came to 64 pM. The Kd values of the last two molecules are within 1.5-fold of each other.
On the same count and under the same terms, as for B11, the figure is 135 pM.
In turn, B12 gave a Kd of 5210 pM.
Same read-out and setting: as for B13, the figure is 61 pM; as for B14, 47 pM; as for B15, 35 pM.
The same measure, in the same setting: the same measure for B16: 65 pM; for B17: 13 pM; for B18: 61 pM.

Another test deals with T3, IFN-α4a (human, UniProt P05014 24-189).
T3 construct: also called IFN-αM1
Put plainly: ProteOn, one antigen concentration.
Description: as §1
The molecule B1 gave a Kd of 170 pM.
Still for that read-out and setting: the same measure for B2: 258 pM; for B3: 410 pM.
Same read-out and setting: the same measure for B4: 139 pM; for B5: 269 pM; for B6: 147 pM.
Still for that read-out and setting: as for B7, the figure is 91 pM; as for B8, 477 pM.
Consider B9, for which binding was put at a Kd of 233 pM.
On the same count and under the same terms, the same measure for B10: 319 pM.
With B11, the Kd is 622 pM.
The molecule B12 registered a dissociation constant (Kd) of 744 pM.
Consider B13, for which binding was characterised by a dissociation constant (Kd) of 235 pM. Compared with the last molecule, the Kd is about 3.2-fold lower.
Same read-out and setting: the same measure for B14: 319 pM; for B15: 164 pM.
For B16, binding was characterised by a dissociation constant (Kd) of 235 pM.
For B17, the dissociation constant (Kd) is 85 pM. This Kd is about 2.8-fold lower than that of the molecule before.
On the same count and under the same terms, as for B18, the figure is 336 pM.

The target of another test is T4, IFN-αJ1 (human, UniProt P01567 24-189).
T4 construct: also called IFN-α7; alpha J1
Put plainly: ProteOn, one antigen concentration.
Description: as §1
Turning to B1, the equilibrium dissociation constant (Kd) is 130 pM.
On the same count and under the same terms, the same measure for B2: 166 pM.
The same measure, in the same setting: as for B3, the figure is 360 pM; as for B4, 135 pM; as for B5, 254 pM.
Still for that read-out and setting: the same measure for B6: 136 pM; for B7: 71 pM.
B8 returned a dissociation constant (Kd) of 607 pM. Compared with the last molecule, the Kd is about 8.5-fold higher.
Turning to B9, binding was put at a Kd of 174 pM. Against the preceding molecule, the Kd is about 3.5-fold lower.
The same measure, in the same setting: as for B10, the figure is 245 pM; as for B11, 388 pM; as for B12, 2400 pM.
On the same count and under the same terms, as for B13, the figure is 110 pM; as for B14, 223 pM; as for B15, 113 pM.
In the case of B16, binding was characterised by a dissociation constant (Kd) of 161 pM.
Same read-out and setting: the same measure for B17: 72 pM; for B18: 245 pM.

A further test addresses T5, IFN-αG (human, UniProt P01569 24-189).
T5 construct: also called IFN-α5; alpha G
Put plainly: ProteOn, one antigen concentration.
Description: as §1
Molecule B1 displayed a Kd of 14 pM.
B2 came in with a Kd of 61 pM.
The same measure, in the same setting: as for B3, the figure is 72 pM; as for B4, 50 pM; as for B5, 80 pM.
Still for that read-out and setting: as for B6, the figure is 40 pM.
Still for that read-out and setting: the same measure for B7: 34 pM; for B8: 77 pM.
Take B9: the affinity, expressed as Kd, was 43 pM.
The same measure, in the same setting: the same measure for B10: 46 pM.
On the same count and under the same terms, as for B11, the figure is 66 pM.
B12 yielded a Kd of 941 pM. Compared with the last molecule, the Kd is about 14-fold higher.
On the same count and under the same terms, the same measure for B13: 51 pM; for B14: 48 pM; for B15: 35 pM.
Still for that read-out and setting: as for B16, the figure is 79 pM.
B17 displayed a Kd of 15 pM.
Turning to B18, binding was characterised by a dissociation constant (Kd) of 77 pM.

For a further test, the target named is T6, human IFN-ω (human, UniProt P05000 24-195).
T6 construct: also called interferon omega
Description: ProteOn, one antigen concentration.
Description: as §1
Turning to B1, the equilibrium dissociation constant (Kd) turned out to be 4 pM. This lies in the picomolar range.
The same measure, in the same setting: the same measure for B2: 59 pM.
The same measure, in the same setting: as for B3, the figure is 108 pM.
B4 came in with a dissociation constant Kd of 34 pM. Against the preceding molecule, the Kd is about 3.2-fold lower.
As for B5, the Kd came to 13 pM.
For B6, the affinity, expressed as Kd, was 21 pM.
B7 came in with a dissociation constant (Kd) of 20 pM.
Same read-out and setting: the same measure for B8: 53 pM.
The same measure, in the same setting: as for B9, the figure is 25 pM; as for B10, 57 pM.
Same read-out and setting: the same measure for B11: 30 pM.
In turn, B12 displayed an equilibrium dissociation constant (Kd) of 345 pM. Compared with the last molecule, the Kd is about 12-fold higher.
Still for that read-out and setting: the same measure for B13: 19 pM; for B14: 18 pM.
In turn, B15 returned a Kd of 39 pM.
On the same count and under the same terms, the same measure for B16: 49 pM; for B17: 15 pM.
On the same count and under the same terms, as for B18, the figure is 42 pM.

The next test deals with T7, IFN-αC (human, UniProt P01566 24-189).
T7 construct: also called IFN-α10; alpha C
Put plainly: ProteOn, one antigen concentration.
Description: as §1
Turning to B1, binding was characterised by a dissociation constant (Kd) of 23 pM.
As for B2, binding was put at a Kd of 50 pM.
Same read-out and setting: as for B3, the figure is 99 pM.
Same read-out and setting: the same measure for B4: 31 pM; for B5: 93 pM; for B6: 41 pM.
On the same count and under the same terms, as for B7, the figure is 17 pM; as for B8, 65 pM.
In the case of B9, binding was put at a Kd of 56 pM. This Kd and that of the molecule before are within 1.5-fold of each other.
Take B10: binding was characterised by a dissociation constant (Kd) of 46 pM.
Same read-out and setting: as for B11, the figure is 101 pM; as for B12, 620 pM; as for B13, 47 pM.
Same read-out and setting: the same measure for B14: 54 pM; for B15: 34 pM; for B16: 59 pM.
For B17, the dissociation constant (Kd) was found to be 12 pM.
Still for that read-out and setting: the same measure for B18: 49 pM.
